Assay results as given in IntAct's records for PubMed 31515488.

B1: Progranulin (Homo sapiens), P28799 (parent)
chain: MWTLVSWVALTAGLVAGTRCPDGQFCPVACCLDPGGASYSCCRPLLDKWPTTLSRHLGGPCQVDAHCSAGHSCIFTVSGTSSCCPFPEAVACGDGHHCCPRGFHCSADGRSCFQRSGNNSVGAIQCPDSQFECPDFSTCCVMVDGSWGCCPMPQASCCEDRVHCCPHGAFCDLVHTRCITPTGTHPLAKKLPAQRTNRAVALSSSVMCPDARSRCPDGSTCCELPSGKYGCCPMPNATCCSDHLHCCPQDTVCDLIQSKCLSKENATTDLLTKLPAHTVGDVKCDMEVSCPDGYTCCRLQSGAWGCCPFTQAVCCEDHIHCCPAGFTCDTQKGTCEQGPHQVPWMEKAPAHLSLPDPQALKRDVPCDNVSSCPSSDTCCQLTSGEWGCCPIPEAVCCSDHQHCCPQGYTCVAEGQCQRGSEIVAGLEKMPARRASLSHPRDIGCDQHTSCPVGQTCCPSLGGSWACCQLPHAVCCEDRQHCCPAGYTCNVKARSCEKEVVSAQPATFLARSPHVGVKDVECGEGHFCHDNQTCCRDNRQGWACCPYRQGVCCADRRHCCPAGFRCAARGTKCLRREAPRWDAPLRDPALRQLL
partner: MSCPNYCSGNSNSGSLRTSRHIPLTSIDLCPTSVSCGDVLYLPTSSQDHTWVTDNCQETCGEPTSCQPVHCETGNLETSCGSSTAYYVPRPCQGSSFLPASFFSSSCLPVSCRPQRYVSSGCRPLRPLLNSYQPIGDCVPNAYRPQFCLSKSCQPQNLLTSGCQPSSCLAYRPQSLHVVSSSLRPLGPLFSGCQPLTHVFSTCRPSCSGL
B2: Stabilizer of axonemal microtubules 1 (Homo sapiens), Q8IYX7 (parent)
chain: MKTKCICELCSCGRHHCPHLPTKIYDKTEKPCLLSEYTENYPFYHSYLPRESFKPRREYQKGPIPMEGLTTSRRDFGPHKVAPVKVHQYDQFVPSEENMDLLTTYKKDYNPYPVCRVDPIKPRDSKYPCSDKMECLPTYKADYLPWNQPRREPLRLEHKYQPASVRFDNRTTHQDDYPIKGLVKTISCKPLAMPKLCNIPLEDVTNYKMSYVAHPVEKRFVHEAEKFRPCEIPFESLTTQKQSYRGLMGEPAKSLKPLARPPGLDMPFCNTTEFRDKYQAWPMPRMFSKAPITYVPPEDRMDLLTTVQAHYTCPKGAPAQSCRPALQIKKCGRFEGSSTTKDDYKQWSSMRTEPVKPVPQLDLPTEPLDCLTTTRAHYVPHLPINTKSCKPHWSGPRGNVPVESQTTYTISFTPKEMGRCLASYPEPPGYTFEEVDALGHRIYKPVSQAGSQQSSHLSVDDSENPNQRELEVLA

Variants of: B1
Conditions: with kr261_human KRTAP26-1, Q6PEX3

effect of a mutation on the interaction	Variant
with no effect	MWTLVSWVALTAGLVAGTRCPDGQFCPVACCLDPGGASYSCCRPLLDKWPTTLSRHLGGPCQVDAHCSAGHSCIFTVSGTSSCCPFPEAVACGDGHHCCPRGFHCSADGRSCFQRSGNNSVGAIQCPDSQFECPDFSTCCVMVDGSWGCCPMPQASCCEDRVHCCPHGAFCDLVHTRCITPTGTHPLAKKLPAQRTNRAVALSSSVMCPDARSRCPDGSTCCELPSGKYGCCPMPNATCCSDHLHCCPQDTVCDLIQSKCLSKENATTDLLTKLPAHTVGDVKCDMEVSCPDGYTCCRLQSGAWGCCPFTQAVCCEDHIHCCPAGFTCDTQKGTCEQGPHQVPWMEKAPAHLSLPDPQALKRDVPCDNVSSCPSSDTCCQLTSGEWGCCPIPEAVCCSDHQHCCPQGYTCVAEGQCQRGSEIVAGLEKMPARRASLSHPRDIGCDQHTSCPVGQTCCPSLGGSWACCQLPHAVCCEDRQHCCPAGYTCNVKARSCEKEVVSAQPATFLARSPHVAVKDVECGEGHFCHDNQTCCRDNRQGWACCPYRQGVCCADRRHCCPAGFRCAARGTKCLRREAPRWDAPLRDPALRQLL [G515A]
with no effect	MWTLVSWVALTAGLVAGTRCPDGQFCPVACCLDPGGASYSCCRPLLDKWPTTLSRHLGGPCQVDAHCSAGHSCIFTVSGTSSCCPFPEAVACGDGHHCCPRGFHCSADGRSCFQRSGNNSVGAIQCPDSQFECPDFSTCCVMVDGSWGCCPMPQASCCEDRVHCCPHGAFCDLVHTRCITPTGTHPLAKKLPAQRTNRAVALSSSVMCPDARSRCPDGSTCCELPSGKYGCCPMPNATCCSDHLHCCPQDTVCDLIQSKCLSKENATTDLLTKLPAHTVGDVKCDMEVSCPDGYTCCRLQSGAWGCCPFTQAVCCEDHIHCCPAGFTCDTQKGTCEQGPHQVPWMEKAPAHLSLPDPQALKRDVPCDNVSSCPSSDTCCQLTSGEWGCCPIPEAVCCSDHQHCCPQGYTCVAEGQCQRGSEIVAGLEKMPARWASLSHPRDIGCDQHTSCPVGQTCCPSLGGSWACCQLPHAVCCEDRQHCCPAGYTCNVKARSCEKEVVSAQPATFLARSPHVGVKDVECGEGHFCHDNQTCCRDNRQGWACCPYRQGVCCADRRHCCPAGFRCAARGTKCLRREAPRWDAPLRDPALRQLL [R433W]
with no effect	MWTLVSWVALTAGLVAGTRCPDGQFCPVACCLDPGGASYSCCRPLLDKWPTTLSRHLGGPCQVDAHCSAGHSCIFTVSGTSSCCPFPEAVACGDGHHCCPRGFHCSADGRSCFQRSGNNSVGAIQCPDSQFECPDFSTCCVMVDGSWGCCPMPQASCCEDRVHCCPHGAFCDLVHTRCITPTGTHPLAKKLPAQRTNRAVALSSSVMCPDARSRCPDGSTCCELPSGKYGCCPMPNATCCSDHLHCCPQDTVCDLIQSKCLSKENATTDLLTKLPAHTVGDVKCDMEVSCPDGYTCCRLQSGAWGCCPFTQAVCCEDHIHCCPAGFTCDTQKGTCEQGPHQVPWMEKAPAHLSLPDPQALKRDVPCDNVSSCPSSDTCCQLTSGEWGCCPIPEAVCCSDHQHCCPQGYTCVAEGQCQRGSEIVAGLEKMPARRASLSHPRDIGCDQHTSCPVGQTCCPSLGGSWACCQLPHAVCCEDRQHCCPAGYTCNVKARSCEKEVVSAQPATFLARSPHVGVKDVECGEGHFCHDNQTCCRENRQGWACCPYRQGVCCADRRHCCPAGFRCAARGTKCLRREAPRWDAPLRDPALRQLL [D536E]

Variants of: B2
Conditions: with rbtn2_human LMO2, P25791
rbtn2_human LMO2, P25791, sequence (P25791 whole entry): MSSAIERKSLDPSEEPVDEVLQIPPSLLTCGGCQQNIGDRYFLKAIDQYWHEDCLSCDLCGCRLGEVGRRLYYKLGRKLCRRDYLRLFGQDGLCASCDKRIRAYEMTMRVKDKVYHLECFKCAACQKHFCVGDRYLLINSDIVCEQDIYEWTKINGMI

effect of a mutation on the interaction	Variant
with no effect	MKTKCICELCSCGRHHCPHLPTKIYDKTEKPCLLSEYTENYPFYHSYLPRESFKPRREYQKGPIPMEGLTTSRRDFGPHKVAPVKVHQYDQFVPSEENMDLLTTYKKDYNPYPVCRVGPIKPRDSKYPCSDKMECLPTYKADYLPWNQPRREPLRLEHKYQPASVRFDNRTTHQDDYPIKGLVKTISCKPLAMPKLCNIPLEDVTNYKMSYVAHPVEKRFVHEAEKFRPCEIPFESLTTQKQSYRGLMGEPAKSLKPLARPPGLDMPFCNTTEFRDKYQAWPMPRMFSKAPITYVPPEDRMDLLTTVQAHYTCPKGAPAQSCRPALQIKKCGRFEGSSTTKDDYKQWSSMRTEPVKPVPQLDLPTEPLDCLTTTRAHYVPHLPINTKSCKPHWSGPRGNVPVESQTTYTISFTPKEMGRCLASYPEPPGYTFEEVDALGHRIYKPVSQAGSQQSSHLSVDDSENPNQRELEVLA [D118G]
disrupting interaction strength	MKTKCICELCSCGRHHCPHLPTKIYDKTEKPCLLSEYTENYPFYHSYLPRESFKPRREYQKGPIPMEGLTTSRRDFGPHKVAPVKVHQYDQFVPSEENMDLLTTYKKDYNPYPVCRVDPIKPRDSKYPCSDKMECLPTYKADYLPWNQPRREPLRLEHKYQPASVRFDNRTTHQDDYPIKGLVKTISCKPLAMPKLCNIPLEDVTNYKMSYVAHPVEKRFVHEAEKFRPCEIPFESLTTQKQSYRGLMGEPAKSLKPLARPPGLDMPFCNTTEFRDKYQAWPMPRMFSKAPITYVPPEDRMDLLTTVQAHYTCPKGAPAQSCRPALQIKKCGRFEGSSTTKDDYKQWSSMRTEPVKPVPQLDLPTEPLDCLTTTRAHYVPHLPINTKSCKPHWSGPRGNVPVESQTTYTISFTPKEMGRCLASYPEPPGYTFEEVDALGHRIYKPVSQAGSQQSSHLSVDDSEKPNQRELEVLA [N464K]

Variants of: B2
Conditions: with fhl3_human FHL3, Q13643
fhl3_human FHL3, Q13643, sequence (Q13643 whole entry): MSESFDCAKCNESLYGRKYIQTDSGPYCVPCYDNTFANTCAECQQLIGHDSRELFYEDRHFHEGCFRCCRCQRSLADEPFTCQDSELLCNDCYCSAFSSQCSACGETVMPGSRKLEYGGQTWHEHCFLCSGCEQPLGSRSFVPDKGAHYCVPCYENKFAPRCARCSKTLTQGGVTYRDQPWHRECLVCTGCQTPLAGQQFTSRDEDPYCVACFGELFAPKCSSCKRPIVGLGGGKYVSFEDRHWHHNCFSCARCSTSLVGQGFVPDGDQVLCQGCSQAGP

effect of a mutation on the interaction	Variant
with no effect	MKTKCICELCSCGRHHCPHLPTKIYDKTEKPCLLSEYTENYPFYHSYLPRESFKPRREYQKGPIPMEGLTTSRRDFGPHKVAPVKVHQYDQFVPSEENMDLLTTYKKDYNPYPVCRVGPIKPRDSKYPCSDKMECLPTYKADYLPWNQPRREPLRLEHKYQPASVRFDNRTTHQDDYPIKGLVKTISCKPLAMPKLCNIPLEDVTNYKMSYVAHPVEKRFVHEAEKFRPCEIPFESLTTQKQSYRGLMGEPAKSLKPLARPPGLDMPFCNTTEFRDKYQAWPMPRMFSKAPITYVPPEDRMDLLTTVQAHYTCPKGAPAQSCRPALQIKKCGRFEGSSTTKDDYKQWSSMRTEPVKPVPQLDLPTEPLDCLTTTRAHYVPHLPINTKSCKPHWSGPRGNVPVESQTTYTISFTPKEMGRCLASYPEPPGYTFEEVDALGHRIYKPVSQAGSQQSSHLSVDDSENPNQRELEVLA [D118G]
with no effect	MKTKCICELCSCGRHHCPHLPTKIYDKTEKPCLLSEYTENYPFYHSYLPRESFKPRREYQKGPIPMEGLTTSRRDFGPHKVAPVKVHQYDQFVPSEENMDLLTTYKKDYNPYPVCRVDPIKPRDSKYPCSDKMECLPTYKADYLPWNQPRREPLRLEHKYQPASVRFDNRTTHQDDYPIKGLVKTISCKPLAMPKLCNIPLEDVTNYKMSYVAHPVEKRFVHEAEKFRPCEIPFESLTTQKQSYRGLMGEPAKSLKPLARPPGLDMPFCNTTEFRDKYQAWPMPRMFSKAPITYVPPEDRMDLLTTVQAHYTCPKGAPAQSCRPALQIKKCGRFEGSSTTKDDYKQWSSMRTEPVKPVPQLDLPTEPLDCLTTTRAHYVPHLPINTKSCKPHWSGPRGNVPVESQTTYTISFTPKEMGRCLASYPEPPGYTFEEVDALGHRIYKPVSQAGSQQSSHLSVDDSEKPNQRELEVLA [N464K]
